Results published in US10946092 (BEIJING MABWORKS BIOTECH, dated 2021).

B1: mouse anti-LAG3 monoclonal antibody 134G10 (antibody, V domains shown)
VH: EVQLVESGGDLVKPGGSLKLSCAASGFTFSSFGMSWVRQTPDKRLEWVGIISSGGTYTFYPDILKGRFTISRDNAKNTLYLQMSSLKSEDTAMYYCARVYSDYDGRFDYWGQGTTLTVSS
VL: DIVMTQSPSSLSVSAGEKVTMNCKSSQSLLNSGNQKNYLAWYQQKPGQPPKLLIYGASTRESGVPDRFTGSGSGTDFTLTISSVQAEDLAVYYCQNDHSYPLTFGAGTKLELK
B2: mouse anti-LAG3 monoclonal antibody 101F4 (antibody, V domains shown)
VH: EVQLEQSGAELVRPGASVTLSCKASGYTFTDYEMHWVKQTPVYGLEWMGAIDPETGGIVYNQRFKGKAILTADKSSSTAYMELRSLTSEDSAVYYCTGAGWGYWGQGTTLTVSS
VL: DIVITQSPSSMYASLGERVTITCKASQDINSYLSWFQQKPGKSPKTLIYRANRLLDGVPSRFSGSGSGQDYSLTISSLEFEDMGLYYCLQYDEFPFTFGSGTKLEIK

Tests used:
[1] = target: T1, monkey (rhesus) LAG3 expressed on HEK293A cells (monkey (rhesus), UniProt A0A5F8A874 23-533); test: FACS on HEK293A/rh LAG3 cells
T1 construct: whole, on cells; also called HEK293A/rh LAG3
T1 sequence: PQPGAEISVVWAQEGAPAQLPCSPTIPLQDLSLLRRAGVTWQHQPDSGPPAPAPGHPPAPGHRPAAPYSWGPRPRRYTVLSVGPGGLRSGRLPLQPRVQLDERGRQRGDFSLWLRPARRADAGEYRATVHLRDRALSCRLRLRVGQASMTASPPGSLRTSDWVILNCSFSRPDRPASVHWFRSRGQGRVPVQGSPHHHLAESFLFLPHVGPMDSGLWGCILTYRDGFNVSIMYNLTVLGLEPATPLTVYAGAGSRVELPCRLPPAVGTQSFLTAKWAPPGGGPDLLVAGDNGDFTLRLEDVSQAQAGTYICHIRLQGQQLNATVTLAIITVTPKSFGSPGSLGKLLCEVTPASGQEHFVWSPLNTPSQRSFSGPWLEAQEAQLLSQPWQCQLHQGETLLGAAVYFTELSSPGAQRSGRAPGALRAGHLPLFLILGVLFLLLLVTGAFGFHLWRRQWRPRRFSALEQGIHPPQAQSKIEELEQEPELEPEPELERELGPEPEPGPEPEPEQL
Description: (§1) Briefly, 10^5 HEK293A cells in 50 μl PBS buffers were seeded into each well of the 96-well plates and then added with 50 μl of serially diluted anti-LAG3 antibodies (5-fold dilution, starting from 40 μg/ml). After incubated at 4° C. for 1 hour, plates were washed 3 times with PBST. Then, an APC coupled Goat Anti-Mouse IgG (BioLegend, US, Cat #: 405308) diluted 500× was added to the plates. After incubation at 4° C. for 1 hour, the plates were washed with PBS for 3 times and then cell fluorescence was monitored using a FACS machine (BD).

[2] = target: T2, human LAG3 expressed on HEK293A cells (human, UniProt P18627 23-525); test: FACS on HEK293A/human LAG3 cells
T2 construct: whole, on cells; also called HEK293A/human LAG3
T2 sequence (looked up): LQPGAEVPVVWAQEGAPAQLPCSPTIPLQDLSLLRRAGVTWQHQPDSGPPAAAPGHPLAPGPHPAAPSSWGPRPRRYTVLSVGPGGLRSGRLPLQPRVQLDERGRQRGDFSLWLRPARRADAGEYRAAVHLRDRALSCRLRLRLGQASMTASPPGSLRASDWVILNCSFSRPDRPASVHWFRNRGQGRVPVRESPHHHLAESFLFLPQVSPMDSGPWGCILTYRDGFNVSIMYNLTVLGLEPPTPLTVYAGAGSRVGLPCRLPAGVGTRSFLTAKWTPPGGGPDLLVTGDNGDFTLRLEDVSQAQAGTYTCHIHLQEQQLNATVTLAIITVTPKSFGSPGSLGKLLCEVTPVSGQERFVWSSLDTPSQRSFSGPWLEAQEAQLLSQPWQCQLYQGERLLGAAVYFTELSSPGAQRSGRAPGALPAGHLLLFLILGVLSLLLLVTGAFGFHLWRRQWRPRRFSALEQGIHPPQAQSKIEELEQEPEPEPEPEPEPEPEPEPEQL
Description: as §1

[3] = target: T3, recombinant mouse LAG3(ECD)-his (Sino Biological, Cat #: 53069-M08H) (mouse, UniProt Q61790 24-442); test: ELISA, coated mouse LAG3-his
T3 construct: extracellular domain; Bought protein; also called Mouse LAG3-his; not shown: his tag
T3 sequence (looked up): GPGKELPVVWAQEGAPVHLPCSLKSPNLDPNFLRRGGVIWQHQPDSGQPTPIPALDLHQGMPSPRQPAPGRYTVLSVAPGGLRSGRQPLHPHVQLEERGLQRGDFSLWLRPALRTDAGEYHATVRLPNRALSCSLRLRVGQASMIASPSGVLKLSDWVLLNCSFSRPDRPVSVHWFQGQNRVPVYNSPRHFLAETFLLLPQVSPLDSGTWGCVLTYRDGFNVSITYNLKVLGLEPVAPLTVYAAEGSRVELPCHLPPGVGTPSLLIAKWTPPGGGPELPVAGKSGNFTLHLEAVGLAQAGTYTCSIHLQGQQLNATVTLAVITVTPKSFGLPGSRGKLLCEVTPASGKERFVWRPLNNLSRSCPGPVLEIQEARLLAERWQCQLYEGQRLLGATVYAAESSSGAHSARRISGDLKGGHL
Description: Species-cross-reactivity of the 12 LAG3 mAbs to monkey or mouse LAG3 was further tested by direct ELISA. Briefly, 50 µl of 500 ng/ml monkey LAG3(ECD)-hFc (ACRO, CN, Cat #: LA3-05252) or mouse LAG3-his (Sino Biological, CN, Cat #:53069-M08H) was coated on 96-well ELISA plates followed by incubation with 100 µl of serially diluted anti-LAG3 antibodies (starting from 40 µg/ml). Goat anti-mouse IgG conjugated with HRP (Sigma, US, Cat #: A9309-1 ml) was added then.

Binder | EC50 [1] [nM] | EC50 [2] [nM] | binding result [3]
B1 | 6.5 | 8.6 | no binding (tested: starting from 40 µg/ml)
B2 | 0.39 | 0.36 | no binding (tested: starting from 40 µg/ml)
